# Assay: yeast display, Sf9 membrane polyspecificity reagent, FACS + sequencing; frameworks hold sequencing errors
# Summary of the method: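 Nanobodies came from a synthetic yeast display library in Saccharomyces cerevisiae BJ5465, induced with galactose for 36–48 hours and stained for 1 hour at 4 °C with 10% biotinylated, detergent-solubilized Sf9 membrane reagent. Cells were enriched on streptavidin microbeads and then FACS-sorted, with low and high (top ~1%) gates set on anti-HA fluorescence for expression and streptavidin fluorescence for reagent binding. Each polyreactivity label reflects the gate a clone came from. Genes were amplified by colony PCR, sequenced by MiSeq 2 × 250 and filtered by CDR length.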
row,Sequence,polyreactivity (PSR sort gate)
1,QVQLVVSGPGLFQAGGSLRISCAPSGFIFYNYAMGWYRQAPGKERELVAAISRSGGSTYYADSVKGRFTISRDNAKNTVYLQMNSLKPEDTAVYYCKVGYGRGSTIGGYDYWGQGTQVTVSS,high polyreactivity
2,QVQLVYSGGGLVQAGGSLRLSCAASGISFSQYAMGWYRQAPGKERELVASISSGGRTNYADSVKGRFTISRDNAKNTVYLQLNSLTPEDTAVYYCAAEQWGWYWYDYWGQGTQVTVSS,high polyreactivity
3,QVQMQESGGGLVLAGGSLRLSCASSGSISAQAYMGWDRQAPGKEREHVAGINYGDNTNYADSVKGRFTISRDNEHRVSADEQPETGRYRGVLLRGFLELFYYYIYWGQGTQVTVSS,high polyreactivity
4,QVQMQESGGGLVQAGGSLRLICAASGTILYSLGMGWYRQATGKRREFVASITWGTTTNYAERVKGRFTISSDNAKNTVYPKIISLKPEVTAVYYCASPPFGDSSFHYWGQGTQVTVSS,low polyreactivity
5,QVQMQESRGGLVQAGGSLRLSCAASGTITTLPAMGWNRQAPGKEREFVAGIDTGAITNYADSVKGRFTISRDNAKNTVYLQKNSLKPEVTAVYYCAVFPAAYDYYERYYTYWGQGTQVTVMS,low polyreactivity
6,QVQPQESGGGLVQAGGSLRLSCAASGTIFAFQTMGWYRQAPGKERELVASITYGSSTNYADSVKGRFTISRDNAKNTVYLQMNSLKPEDTAVYYCAKSAQRYSYRYYYWGQGTQVTVSS,high polyreactivity
7,QVQPQESGGGPVQACGSLRLSCAASGNILDADILGWYRLVPAKERELVASITDGGSTNYAESVKGRFTISRDNAKNTVYLQMNSLKPEDTAVYYCARRHRVFPSRIGHDYWGQGSQVTVSS,low polyreactivity
8,QVQPVESRGGLVQAGGSLRLSCAASGRIFARNAQGWYRTAPGKERELVAAITYSSGRTYYADSVKGRFTISRDNAKNTVYLQMNSLKPEHTAVYYCADGKGYIGVSVSGGYGYWGPGTQVTVSS,high polyreactivity
9,QVQQQASGGGLVQAGGSLRLSCATSGSIFYADTMGWYRQAPGKEREFVITYYADSVKGLSRDNAKNTVYLQMNSLKPEDSAVYYCATDGVNPFYAYDYWGQGTQVTVSS,low polyreactivity
10,QVQQQESGGGLVQACGSLPLSCAASVSIFTQATMGWYRQPPGKERELVAAINFGSSTYYADSVKGRFTISRDNAKSTVYLQMNSLKPEDTSVYYCAVRALWYDLHDYWGQGTQVTVSS,high polyreactivity
11,QVQQQESGGGLVQAGGSLRLSCAASGTIFQLTVMGRYRQAPGKERELVASIDYGGNTNYADSVKGRFTISRDNAKNTVYLQMHSLKPEDTAVYYCAASSDSWTTHPYWGQGTQVTVSS,low polyreactivity
12,QVQQQESGGGLVQEGGSLRLSCAASGYIFDYYYMGWYRQAPGKEREFVATISEGSTTNYADSVKGRFTTSRDNSKNTVYLQMNSLKPEDTAVYYCATDTVYGNDYWGQGTHVTVSS,low polyreactivity
13,QVQQRESGGGLVQAGGSLSLSCAASGTIFYSRYMGWYRQAPGKEREFVASISSGGNTNYADSVKGRCTISRDNAKNTVYLQMNSLKPEVTAVYYCAVNTGLITTFPFWGQATQVTVSS,high polyreactivity
14,QVQQVESGGGLVQAGGSLRLSCAASGFIFFGYAMGWYRQARGKERELVAAITSGGSTYYADSVKGRFTISRDNAKNTVYLQMNSLKPEDTAVYYCAADNSGWWGTGYNYWGQGTQVTVSS,high polyreactivity
15,QVQQVESGGGLVQAGVSLRLSCPASGLTFYTNPRGWYRQAPGKERELVAAIRRRGGRTYYADSVKGRFTISRDNATNSVYLQMNSLKPEDTAVSYCAADYSTLYNYDYWGQGTQVTVSS,low polyreactivity
16,QVQREESGGGLVQAGGSLRLSCAASGSILYYNAMGWYRQAPGKEREFVAGISSSGGSTYYADSVKGRFTISRDNAKNTVYLQMKSLQPEENAVYYCAKRTYWRRGWCFDFWGQGTQVTVSS,high polyreactivity
17,QVQRGESGGGLVQAGGSLRLSCAASAIIIYYYAMGCYRQAPGNERELVAGISYSGGSTYADSVKGRFTISRDNAKLTVYLQMNSLKPEDTAVYYCAAEYEYGGHWYDYWGQGTQETVSS,low polyreactivity
18,QVQRVDSGGGLRQAGGSLRLTCSASGSIFGLYAMGWYRQATGKERELVASISKSGGSTYYADCVKGRFTISRDNAKNTVYLQMNRLKPEDTAVYYCAARQYPRAGFDYWGQGTQVPVSS,high polyreactivity
19,QVQRVDSGGGLVQAGGSLRLTCAASGFTFSQYVMGWYRQAPGKARELVAAISYRGGSTYYADSVKGRFTISRDNAKNTVYVQMNSLKPEDTAVYYCAAVAYSWHNRYDYWGQGTQVTVSS,high polyreactivity
20,QVQRVESAAGLVQAGGSLRLSCAASGSIFWFNSMGWSRPEPGKERELVATIRYSGCSTYYADSVKGRFTISRDNAKKTVYLLMNSLKPDDTAVYYSAAVYRYSRSGYEYWGQGTQVTVSS,high polyreactivity
21,QVQRVESAGGLVQAGGSLRLSCAPSGRILPSNAMGWYRQAPGKERELVAGITSGGSTDYADSVKGRFTISRDNAKNTVYIQMHSLKPEDTAVYYCAADSRRYGVRFDYWGQGTQVTVSS,low polyreactivity

row,Sequence,polyreactivity (PSR sort gate)
1,QVQRVESGAGLVQAGGILRLSCPASGSIFTNNPMGWSRQAPGKARELVAGISFRGSSTYADSVKGRFTISRDNAKNSVYLQMNSLNPVDPAVYYCAGDGLYWWMYYWGQGTQVTVSS,low polyreactivity
2,QVQRVESGGGIVQAGGTLRLSCAASLRIKDNVMGRYIQAHGKERELVAAITRSAGRTYYADSVKGRFTISRDNAKYTVYLQKNSLKPEDTALYYCAAHAERYGYEYWGQGTQVTVSS,low polyreactivity
3,QVQRVESGGGLFQAGGRLRLSCAASGSISLKYAMGWYRQAPGKERELVATISRGGSTNYADSVKGRFTISRDNAKNTVYIQMNSLKPEDTAVYYCAANYGRPYGTYGYWGQGTQVTVSS,high polyreactivity
4,QVQRVESGGGLFQAGRSLRLSCAASGSTIRRYAMGWYRQAPGKERELVAAMSRGGNTNYADSVKGRFTISRDNATNTVYLQMNCLKPEDTAVYYCAAKLYGGWYRDFAACGMDYWGQGTQVTVCS,high polyreactivity
5,QVQRVESGGGLLQAGRSLRLSCAASGTIFYHYAMGWYRQAPGKERELVAAMTRSGGSTYYADSVKGRFTISRDNAKNTVYLQMNSLNPEDTAVYYCAKDPDSYNFLTSNWYDYWGQGTQVTVCS,low polyreactivity
6,QVQRVESGGGLVQAGASLRLSCAASGSTFLTNAMGWYIQAPGKERELVAAITWSGTSTYADSVKGRFTISRDNAKNTVYLQMNSLKPEDTAVYYCIADGWYYPTDDYWGQGTQVTVSS,low polyreactivity
7,QVQRVESGGGLVQAGGCLRLSSAASGFIFRYNDMGWYRQAPGKERQLVATITGSGTSTYYADSVKGRFTISRDNAKTTVYLQMNSLKPEDTAVYYCAAVTSYWYWYVGYDYWGQGTQVTVSS,high polyreactivity
8,QVQRVESGGGLVQAGGILRLSCAASGSTFKVNVIGWYRHAPRTERDLVSAINQSGGGKYYADSVKGRFTISRDNAKNTVYLQMNSLKPEDTAVYYCAAKIFVLRYVLSQEQRRYNYWGQGTQLTVSS,low polyreactivity
9,QVQRVESGGGLVQAGGRLRLSSSASGSIFPTNTMGLSRQSPGKERELVAAITGSGGSRYYADSVKGRFTISRDNAKNTVYLQMNSLKPEDTAVYYCAARYRVDGVKYGYWGQGTQVTVSS,high polyreactivity
10,QVQRVESGGGLVQAGGSLPLSCAATGRTVRQNAMGWYGQAPGKVSELVAAISSSGTNTHYAVSVKGRFTISRDNANNTVYIVMNRLKPEDTAVYYCAADGWGARRKQYHDNGFWGTGTQVTVSS,high polyreactivity
11,QVQRVESGGGLVQAGGSLRISCAASGLIFYRYAMGRYRQAPGKERELVAAISKRGTSTYYADSVKGRFTISRDNAKNTVYLQMNSLKPEDTAVYYCAADVQEEYDYWGLGTQVTVSS,high polyreactivity
12,QVQRVESGGGLVQAGGSLRLRCAASGFIFWLYAMGWYRQAPAKERELVAAISNGGSTNYADSVKGRFTISRDNAKNTVYLQMNSLKPEDTAVYYCAAKFPRRYYWYDYWGQGTQVTVSS,high polyreactivity
13,QVQRVESGGGLVQAGGSLRLSCAACGLTFRQYAMVWYRQAPGKERELVAAIRSRGGSTYYADSVKGRFTISRDNAKNTVYFQMNSLKPEDTAVYYCAAGGRGWWLYRYNFFSEMDYWGQGTQVTVSS,high polyreactivity
14,QVQRVESGGGLVQAGGSLRLSCAASGFIFEGNAMGWYRQAPGKERELVAAISWSGGRTFYADSVKGRFTISRDHAKNTVYLQMNSLKPEDTAVYYCAAQGRRYGYGDFYYWGQGTQVTVSS,high polyreactivity
15,QVQRVESGGGLVQAGGSLRLSCAASGFIFETYAMGWYRQAPGKERELVAAISWRTGRTYYADSVKGRFTISRDNAKNTVYLQMNSLKPEDTAVYYCNADYGGTSTLKDFDYWGQGTQVTVSS,low polyreactivity
16,QVQRVESGGGLVQAGGSLRLSCAASGFIFGRYAMGWYRQAPGKERELVAASTWGGDSTYYADSVKGRFTISRDNAKNTVYLQMNSLKPEDTAVYYCAAYPQRRFYWQYRYDYWGQGTQVTVSS,high polyreactivity
17,QVQRVESGGGLVQAGGSLRLSCAASGFIFIRNAMGWYRQAPGKERELVAAISSGGRTYYADSVKGRFTISRDNAKNTVYLQMNSLQPEDTAVYYCATRPHRPRGHSVGQYDYWGQGTQVTVSS,high polyreactivity
18,QVQRVESGGGLVQAGGSLRLSCAASGFTFDRYAMGWYRQAPGKERELVAAISRSGGSTHYADSVKGRFTISRDNAKNTVYLQMNSLKPEDTAVYYCAKVYAPITALYFPTDRGDYCGQGTQVTVSS,high polyreactivity
19,QVQRVESGGGLVQAGGSLRLSCAASGFTFRAYTMGWYRQAPGKDRELVAAITYSGGRRYYADSVKGRFTISRDNAKTTVYLQMNSLNPEDTAVYYCAKRGWALSEYYYWGQGTQVTVSS,high polyreactivity
20,QVQRVESGGGLVQAGGSLRLSCAASGFTFVEYAMGWYRQAPGKERELVAAISVSGGSTYYADSVKGRFTISRDNAKNTVYLQMNSLKPEDTAVYYCNATGYQVGSITIYDYWGQGSQVTVSS,low polyreactivity

# Reference: the nanobody polyreactivity screen of Harvey et al. (2022)
